The test system of data set [1] is HeLa Kyoto. The data set is described as follows: thermal stability score vs G1/S (z-score of summed log2 fold changes over temperatures); higher = more thermally stable than in G1/S.
Data set [2] has as its system HeLa Kyoto. The data set can be described thus: solubility change mitosis vs G1/S (difference of NP-40 vs SDS log2 ratios) (log2 ratio difference); higher = more soluble in mitosis.
Data set [3] concerns HeLa Kyoto. The data set can be described thus: solubility in G1/S (NP-40 vs SDS abundance) (log2 ratio); higher = more soluble. As to conditions: cell cycle stage: G1/S.
Where [4] appears, read: cell cycle stage: early G1 (4.5 h after nocodazole release).
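Wherever solubility change mitosis vs G1/S (difference of NP-40 vs SDS log2 ratios) is given: synchronized HeLa Kyoto cells (double thymidine block for G1/S, nocodazole release for mitosis), protein amounts in NP-40 versus SDS lysates quantified by mass spectrometry, three biological replicates.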
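Wherever solubility in G1/S (NP-40 vs SDS abundance) is given: HeLa Kyoto cells arrested at G1/S by double thymidine block, proteins quantified by TMT10plex mass spectrometry in mild NP-40 versus SDS extracts, three biological replicates.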
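Wherever thermal stability score vs G1/S (z-score of summed log2 fold changes over temperatures) is given: synchronized HeLa Kyoto cells, proteins quantified by TMT10plex mass spectrometry, three biological replicates, mitosis taken 0.5 h after nocodazole release, G1/S directly after double thymidine block.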

BMS1, sequence (chain, as listed by the source): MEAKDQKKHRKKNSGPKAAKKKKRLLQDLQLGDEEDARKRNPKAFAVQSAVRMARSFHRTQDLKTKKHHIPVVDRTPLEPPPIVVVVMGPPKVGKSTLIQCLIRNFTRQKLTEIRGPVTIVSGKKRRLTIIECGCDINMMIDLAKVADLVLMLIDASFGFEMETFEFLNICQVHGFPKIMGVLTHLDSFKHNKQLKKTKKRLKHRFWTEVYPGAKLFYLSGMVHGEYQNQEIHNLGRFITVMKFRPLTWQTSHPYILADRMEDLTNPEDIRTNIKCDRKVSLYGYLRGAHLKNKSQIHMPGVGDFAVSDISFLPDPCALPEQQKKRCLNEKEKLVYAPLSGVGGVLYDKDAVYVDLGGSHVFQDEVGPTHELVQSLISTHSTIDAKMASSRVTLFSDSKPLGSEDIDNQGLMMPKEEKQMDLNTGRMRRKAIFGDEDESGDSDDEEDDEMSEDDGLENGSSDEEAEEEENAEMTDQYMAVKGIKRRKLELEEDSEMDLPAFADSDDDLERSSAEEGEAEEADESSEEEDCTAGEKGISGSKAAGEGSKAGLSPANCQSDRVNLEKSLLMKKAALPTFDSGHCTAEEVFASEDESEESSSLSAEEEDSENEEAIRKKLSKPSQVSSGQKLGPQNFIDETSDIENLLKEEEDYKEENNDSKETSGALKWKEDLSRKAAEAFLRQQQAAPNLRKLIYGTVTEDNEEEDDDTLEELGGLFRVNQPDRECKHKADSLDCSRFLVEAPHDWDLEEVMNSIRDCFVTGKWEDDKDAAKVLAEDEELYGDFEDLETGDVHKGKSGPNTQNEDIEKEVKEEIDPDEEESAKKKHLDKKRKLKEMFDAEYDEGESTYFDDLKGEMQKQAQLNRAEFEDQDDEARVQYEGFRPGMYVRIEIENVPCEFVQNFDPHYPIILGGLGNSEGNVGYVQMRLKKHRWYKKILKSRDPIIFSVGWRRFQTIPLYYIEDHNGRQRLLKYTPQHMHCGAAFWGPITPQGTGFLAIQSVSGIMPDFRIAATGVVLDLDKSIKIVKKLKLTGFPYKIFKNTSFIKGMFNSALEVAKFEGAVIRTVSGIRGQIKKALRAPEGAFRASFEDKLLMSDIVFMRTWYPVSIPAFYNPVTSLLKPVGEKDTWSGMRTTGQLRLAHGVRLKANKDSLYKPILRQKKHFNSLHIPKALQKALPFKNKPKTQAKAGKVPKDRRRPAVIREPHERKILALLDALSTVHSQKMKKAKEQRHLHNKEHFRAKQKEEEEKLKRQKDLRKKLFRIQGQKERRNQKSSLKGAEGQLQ
SOX13, sequence (chain, as listed by the source): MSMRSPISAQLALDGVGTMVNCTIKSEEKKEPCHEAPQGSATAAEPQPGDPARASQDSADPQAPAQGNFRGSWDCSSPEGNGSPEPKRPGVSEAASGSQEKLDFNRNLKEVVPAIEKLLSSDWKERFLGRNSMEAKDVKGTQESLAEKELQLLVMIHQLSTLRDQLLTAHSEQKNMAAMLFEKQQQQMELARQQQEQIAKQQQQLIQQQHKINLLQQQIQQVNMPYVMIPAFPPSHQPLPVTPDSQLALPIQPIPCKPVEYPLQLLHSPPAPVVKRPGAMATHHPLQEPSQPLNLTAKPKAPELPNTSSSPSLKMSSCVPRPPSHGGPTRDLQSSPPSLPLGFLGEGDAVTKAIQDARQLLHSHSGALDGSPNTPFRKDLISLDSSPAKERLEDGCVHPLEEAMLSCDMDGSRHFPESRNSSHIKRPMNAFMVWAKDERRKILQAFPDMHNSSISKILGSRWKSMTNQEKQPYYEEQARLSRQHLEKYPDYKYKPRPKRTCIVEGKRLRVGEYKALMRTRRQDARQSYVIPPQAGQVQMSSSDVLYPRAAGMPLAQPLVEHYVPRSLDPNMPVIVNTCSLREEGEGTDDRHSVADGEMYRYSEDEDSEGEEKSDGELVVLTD

For the substance “MECPVMETGSLFTSGIKRHLKDKRISKTTKLNVSLASKIKTKILNNSSIFKISLKHNNRALAQALSREKENSRRITTEKMLLQKEVEKLNFENTFLRLKLNNLNKKLIDIEALMNNNLITAIEMSSLSEFHQSSFLLSASKKKRISKQCKLMRLPFARVPLTSNDDEDEDKEKMQCDNNIKSKTLPDIPSSGSTTQPLSTQDNSEVLFLKENNQNVYGLDDSEHISSIVDVPPRESHSHSDQSSKTSLMSEMRNAQSIGRRWEKPSPSNVTERKKRGSSWESNNLSADTPCATVLDKQHISSPELNCNNEINGHTNETNTEMQRNKQDLPGLSSESAREPNAECMNQIEDNDDFQLQKTVYDADMDLTASEVSKIVTVSTGIKKKSNKKTNEHGMKTFRKVKDSSSEKKRERSKRQFKNSSDVDIGEKIENRTERSDVLDGKRGAEDPGFIFNNEQLAQMNEQLAQVNELKKMTLQTGFEQGDRENVLCNKKEKRITNEQEETYSLSQSSGKFHQESKFDKGQNSLTCNKSKASRQTFVIHKLEKDNLLPNQKDKVTIYENLDVTNEFHTANLSTKDNGNLCDYGTHNILDLKKYVTDIQPSEQNESNINKLRKKVNRKTEIISGMNHMYEDNDKDVVHGLKKGNFFFKTQEDKEPISENIEVSKELQIPALSTRDNENQCDYRTQNVLGLQKQITNMYPVQQNESKVNKKLRQKVNRKTEIISEVNHLDNDKSIEYTVKSHSLFLTQKDKEIIPGNLEDPSEFETPALSTKDSGNLYDSEIQNVLGVKHGHDMQPACQNDSKIGKKPRLNVCQKSEIIPETNQIYENDNKGVHDLEKDNFFSLTPKDKETISENLQVTNEFQTVDLLIKDNGNLCDYDTQNILELKKYVTDRKSAEQNESKINKLRNKVNWKTEIISEMNQIYEDNDKDAHVQESYTKDLDFKVNKSKQKLECQDIINKHYMEVNSNEKESCDQILDSYKVVKKRKKESSCKAKNILTKAKNKLASQLTESSQTSISLESDLKHITSEADSDPGNPVELCKTQKQSTTTLNKKDLPFVEEIKEGECQVKKVNKMTSKSKKRKTSIDPSPESHEVMERILDSVQGKSTVSEQADKENNLENEKMVKNKPDFYTKAFRSLSEIHSPNIQDSSFDSVREGLVPLSVSSGKNVIIKENFALECSPAFQVSDDEHEKMNKMKFKVNRRTQKSGIGDRPLQDLSNTSFVSNNTAESENKSEDLSSERTSRRRRCTPFYFKEPSLRDKMRR [SGOL2]”, the thermal stability score in the data set on HeLa Kyoto [1] (setting [4]) worked out at 0.746; in the data set on HeLa Kyoto [1] (cell cycle stage: mitosis), 2.18. For the same substance, in the data set on HeLa Kyoto [2], the “solubility change mitosis (log2)” value stood at 0.191. In addition, in the data set on HeLa Kyoto [3], the “solubility in G1/S (log2)” value is -0.383.
The like results for BMS1 were, in that order, -1.95, -3.51, 0.919 and -2.43.
“MSSKQEIMSDQRFRRVAKDPRFWEMPEKDRKVKIDKRFRAMFHDKKFKLNYAVDKRGRPISHSTTEDLKRFYDLSDSDSNLSGEDSKALSQKKIKKKKTQTKKEIDSKNLVEKKKETKKANHKGSENKTDLDNSIGIKKMKTSCKFKIDSNISPKKDSKEFTQKNKKEKKNIVQHTTDSSLEEKQRTLDSGTSEIVKSPRIECSKTRREMQSVVQLIMTRDSDGYENSTDGEMCDKDALEEDSESVSEIGSDEESENEITSVGRASGDDDGSEDDEEEDEDEEEDEDEDSEDDDKSDSGPDLARGKGNIETSSEDEDDTADLFPEESGFEHAWRELDKDAPRADEITRRLAVCNMDWDRLKAKDLLALFNSFKPKGGVIFSVKIYPSEFGKERMKEEQVQGPVELLSIPEDAPEKDWTSREKLRDYQFKRLKYYYAVVDCDSPETASKIYEDCDGLEFESSCSFIDLRFIPDDITFDDEPKDVASEVNLTAYKPKYFTSAAMGTSTVEITWDETDHERITMLNRKFKKEELLDMDFQAYLASSSEDEEEIEEELQGDDGVNVEEDGKTKKSQKDDEEQIAKYRQLLQVIQEKEKKGKENDMEMEIKWVPGLKESAEEMVKNKLEGKDKLTPWEQFLEKKKEKKRLKRKQKALAEEASEEELPSDVDLNDPYFAEEVKQIGINKKSVKSAKDGTSPEEEIEIERQKAEMALLMMDEDEDSKKHFNYNKIVEHQNLSKKKKKQLMKKKELIEDDFEVNVNDARFQAMYTSHLFNLDPSDPNFKKTKAMEKILEEKARQRERKEQELTQAIKKKESEIEKESQRKSIDPALSMLIKSIKTKTEQFQARKKQKVK [ESF1]”: the thermal stability score is 2.5 in the data set with HeLa Kyoto [1] (setting [4]) and 5.59 in the data set on HeLa Kyoto [1] (cell cycle stage: mitosis). Also, in the data set with HeLa Kyoto [2], the “solubility change mitosis (log2)” value was 0.656. Moreover, the “solubility in G1/S (log2)” value in the data set on HeLa Kyoto [3] is -1.21.
The matching figures for “MAADVVGDVYVLVEHPFEYTGKDGRRVAIRPNERYRLLRRSTEHWWHVRREPGGRPFYLPAQYVRELPALGNPAAAAPPGPHPSPAAPEPLAYDYRFVSAAATAGPDGAPEESGGRASSLCGPAQRGAATQRSSLAPGLPACLYLRPAAPVRPAQSLNDLACAAVSPPAGLLGSSGSFKACSVAGSWVCPRPLARSDSENVYEVIQDLHVPPPEESAEQVDDPPEPVYANIERQPRATSPGAAAAPLPSPVWETHTDAGTGRPYYYNPDTGVTTWESPFEAAEGAASPATSPASVDSHVSLETEWGQYWDEESRRVFFYNPLTGETAWEDEAENEPEEELEMQPGLSPGSPGDPRPPTPETDYPESLTSYPEEDYSPVGSFGEPGPTSPLTTPPGWSCHVSQDKQMLYTNHFTQEQWVRLEDPHGKPYFYNPEDSSVRWELPQVPVPAPRSIHKSSQDGDTPAQASPPEEKVPAELDEVGSWEEVSPATAAVRTKTLDKAGVLHRTKTADKGKRLRKKHWSASWTVLEGGVLTFFKDSKTSAAGGLRQPSKFSTPEYTVELRGATLSWAPKDKSSRKNVLELRSRDGSEYLIQHDSEAIISTWHKAIAQGIQELSAELPPEESESSRVDFGSSERLGSWQEKEEDARPNAAAPALGPVGLESDLSKVRHKLRKFLQRRPTLQSLREKGYIKDQVFGCALAALCERERSRVPRFVQQCIRAVEARGLDIDGLYRISGNLATIQKLRYKVDHDERLDLDDGRWEDVHVITGALKLFFRELPEPLFPFSHFRQFIAAIKLQDQARRSRCVRDLVRSLPAPNHDTLRMLFQHLCRVIEHGEQNRMSVQSVAIVFGPTLLRPEVEETSMPMTMVFQNQVVELILQQCADIFPPH [ARHGAP27]”: 2.18, 0.927, -0.164 and 0.0968.
The matching figures for “MAVSERRGLGRGSPAEWGQRLLLVLLLGGCSGRIHQLALTGEKRADIQLNSFGFYTNGSLEVELSVLRLGLREAEEKSLLVGFSLSRVRSGRVRSYSTRDFQDCPLQKNSSSFLVLFLINTKDLQVQVRKYGEQKTLFIFPGLLPEAPSKPGLPKPQATVPRKVDGGGTSAASKPKSTPAVIQGPSGKDKDLVLGLSHLNNSYNFSFHVVIGSQAEEGQYSLNFHNCNNSVPGKEHPFDITVMIREKNPDGFLSAAEMPLFKLYMVMSACFLAAGIFWVSILCRNTYSVFKIHWLMAALAFTKSISLLFHSINYYFINSQGHPIEGLAVMYYIAHLLKGALLFITIALIGSGWAFIKYVLSDKEKKVFGIVIPMQVLANVAYIIIESREEGASDYVLWKEILFLVDLICCGAILFPVVWSIRHLQDASGTDGKVAVNLAKLKLFRHYYVMVICYVYFTRIIAILLQVAVPFQWQWLYQLLVEGSTLAFFVLTGYKFQPTGNNPYLQLPQEDEEDVQMEQVMTDSGFREGLSKVNKTASGRELL [GPR108]”: -3.36, -3.48, -0.16 and 0.04.
The like results for “MESSSSDYYNKDNEEESLLANVASLRHELKITEWSLQSLGEELSSVSPSENSDYAPNPSRSEKLILDVQPSHPGLLNYSPYENVCKISGSSTDFQKKPRDKMFSSSAPVDQEIKSLREKLNKLRQQNACLVTQNHSLMTKFESIHFELTQSRAKVSMLESAQQQAASVPILEEQIINLEAEVSAQDKVLREAENKLEQSQKMVIEKEQSLQESKEECIKLKVDLLEQTKQGKRAERQRNEALYNAEELSKAFQQYKKKVAEKLEKVQAEEEILERNLTNCEKENKRLQERCGLYKSELEILKEKLRQLKEENNNGKEKLRIMAVKNSEVMAQLTESRQSILKLESELENKDEILRDKFSLMNENRELKVRVAAQNERLDLCQQEIESSRVELRSLEKIISQLPLKRELFGFKSYLSKYQMSSFSNKEDRCIGCCEANKLVISELRIKLAIKEAEIQKLHANLTANQLSQSLITCNDSQESSKLSSLETEPVKLGGHQVESVKDQNQHTMNKQYEKERQRLVTGIEELRTKLIQIEAENSDLKVNMAHRTSQFQLIQEELLEKASNSSKLESEMTKKCSQLLTLEKQLEEKIVAYSSIAAKNAELEQELMEKNEKIRSLETNINTEHEKICLAFEKAKKIHLEQHKEMEKQIERLEAQLEKKDQQFKEQEKTMSMLQQDIICKQHHLESLDRLLTESKGEMKKENMKKDEALKALQNQVSEETIKVRQLDSALEICKEELVLHLNQLEGNKEKFEKQLKKKSEEVYCLQKELKIKNHSLQETSEQNVILQHTLQQQQQMLQQETIRNGELEDTQTKLEKQVSKLEQELQKQRESSAEKLRKMEEKCESAAHEADLKRQKVIELTGTARQVKIEMDQYKEELSKMEKEIMHLKRDGENKAMHLSQLDMILDQTKTELEKKTNAVKELEKLQHSTETELTEALQKREVLETELQNAHGELKSTLRQLQELRDVLQKAQLSLEEKYTTIKDLTAELRECKMEIEDKKQELLEMDQALKERNWELKQRAAQVTHLDMTIREHRGEMEQKIIKLEGTLEKSELELKECNKQIESLNDKLQNAKEQLREKEFIMLQNEQEISQLKKEIERTQQRMKEMESVMKEQEQYIATQYKEAIDLGQELRLTREQVQNSHTELAEARHQQVQAQREIERLSSELEDMKQLSKEKDAHGNHLAEELGASKVREAHLEARMQAEIKKLSAEVESLKEAYHMEMISHQENHAKWKISADSQKSSVQQLNEQLEKAKLELEEAQDTVSNLHQQVQDRNEVIEAANEALLTKESELTRLQAKISGHEKAEDIKFLPAPFTSPTEIMPDVQDPKFAKCFHTSFSKCTKLRRSISASDLTFKIHGDEDLSEELLQDLKKMQLEQPSTLEESHKNLTYTQPDSFKPLTYNLEADSSENNDFNTLSGMLRYINKEVRLLKKSSMQTGAGLNQGENV [CCDC18]” were, in that order, -0.388, -0.856, 0.237 and 0.155.
As to “MIPVSLVVVVVGGWTVVYLTDLVLKSSVYFKHSYEDWLENNGLSISPFHIRWQTAVFNRAFYSWGRRKARMLYQWFNFGMVFGVIAMFSSFFLLGKTLMQTLAQMMADSPSSYSSSSSSSSSSSSSSSSSSSSSSSLHNEQVLQVVVPGINLPVNQLTYFFTAVLISGVVHEIGHGIAAIREQVRFNGFGIFLFIIYPGAFVDLFTTHLQLISPVQQLRIFCAGIWHNFVLALLGILALVLLPVILLPFYYTGVGVLITEVAEDSPAIGPRGLFVGDLVTHLQDCPVTNVQDWNECLDTIAYEPQIGYCISASTLQQLSFPVRAYKRLDGSTECCNNHSLTDVCFSYRNNFNKRLHTCLPARKAVEATQVCRTNKDCKKSSSSSFCIIPSLETHTRLIKVKHPPQIDMLYVGHPLHLHYTVSITSFIPRFNFLSIDLPVVVETFVKYLISLSGALAIVNAVPCFALDGQWILNSFLDATLTSVIGDNDVKDLIGFFILLGGSVLLAANVTLGLWMVTAR [MBTPS2]”, the thermal stability score was -0.0953 in the data set on HeLa Kyoto [1] (setting [4]) and -0.633 in the data set with HeLa Kyoto [1] (cell cycle stage: mitosis). Further, the “solubility change mitosis (log2)” value in the data set with HeLa Kyoto [2] was -0.109. Also, in the data set on HeLa Kyoto [3], the “solubility in G1/S (log2)” value is -0.23.
The matching figures for SOX13: 0.734, 0.151, 0.0877 and 0.191.

The record behind these values is the supplement of paper PMC5998384.
